Results: US7338658

What was measured:
[1] = target: baboon CD4 on lymphocytes (baboon); test: flow cytometry on lymphocytes of different species
[2] = target: Fc receptors on human cells (γIFN-induced monocytes, γIFN-induced THP-1 cells, ADCC effector cells); test: cell-based or functional assay
[3] = target: human CD4 on cells (human) (UniProt P01730); test: cell-based or functional assay

fold lower reactivity than human [1] [fold]	ADCC, total specific lysis of SupT1 cells [2] [%]	ED50 of cell-cell adhesion (γIFN activated fresh monocytes and CD4+ SupT1 T cells) [2] [µg/mL]	IL-2 Production (IC50), three way MLR [3] [µg/mL]	Proliferation (IC50), three way MLR [3] [µg/mL]	Substance	ADCC, concentration at maximal cytotoxicity [2] [µg/mL]
10	50	0.02			CE9.1 monkey/human chimeric anti-CD4 monoclonal antibody (ATCC No. 69030 construct) (from UniProt P01857 1-330)	6
			0.02	0.02	CE9γ4λK (antibody)	
